Results taken from a protein production outcome set (Wang et al. 2014).

Assay: label from the status in PepcDB records

Sequence	protein production
MTQKFGLSAALTTPFKTDGTVDIDAMIAHARRCLSNGCDSVTLFGTTGEGCSVGSRERQAILSSFIAAGIAPSRIVTGVLVDSIEDAADQSAEALNAGARNILLAPPSYFKNVSDDGLFAWFSAVFSKIGKDARDILVYNIPSVTMVTLSVELVGRLKAAFPGIVTGVKDSSGNWSHTERLLKEHGDLAILIGDERDLARGVRLGGQGAISGVANFLTQEVRAMAVDGKDDPRIVDLVVELLKFPVTPAVKVLVSHTTGETIWSDVRAPLVAISPEDRRQIEGAFDALFRRQAA	not failed
MISNEEMKSGNILNLFCKFALPAVVGVLIAGIQGIIDGFFIGNAIGSHGLAGITLAYPPYLAIIAAGIIIGIGSSSLIALRLGEGKTGEALEIMNNAFPLCLIAGAVFTAGGLIFCRTSISLLGTNGPALSLASEYLHIIFAGSVFMILAIALDPLVRNNGKPRLCMKIMVAGVLANIILDYLLVMHMEMGMSGAATATVLSFVLPAVLLTHHLLSSQAKLRLRIKSMRVKTATALKILNAGVPSFVMQMSFALMLFVQNYMLLRYGSELAVSAYGVIGYIFSIFYMLFEGIALGVQPIIGFNYGAGNYGRVLKTLKLTILSCTLIGALGFTLIYLFPESLVQIFSQRDSELLDATLQGMDIFMFSLLVEGTVLLTAVYYQSINRVRAALFIHLGKIFIFLFPLLFILPHFFDLNGVWAASPATEYLMAAVVMVMLSKEFDFLRNSRKVEIKQPVTLKITSEVTSKHETSASRNTVKTGNEECTGFIPFKHTEREAS	failed
MSNLPFHQFCGTEGYVASRALQDVVNVAIALERPLLLKGEPGTGKTLLAYHIAKALGMEIILWNVKSTTKARDGLYTYDTVQRLNDARFGDGDVRDIRHYIKLGPLGRAFGSAERVVLLIDEVDKADIEFPNDLLFELDEMRFHVLETDEWVSAAHRPVVIVTSNSEKELPDAFLRRCVFHYIDFPDETQMRAIIDVHFPDLPAELMRSACKVFYGLREVPGLRKRPSTSELLDWIRVLLASGARLPEEETPALQSVPFLGALVKIQEDADILAHHASRSADVRTAGRRFFRLEHHHHHH	failed
MYEITATIVTYKNPDSVLLKAINSFLNTKLEVRLYIIDNSPTDYLKDISYDPRVEYIFMNSNNGFGAGHNVILRDPEKMGKYHLILNPDISFEEGTLEKLYDYMEGKLDVGNVMPKVIYPNGELQYLCKLLPTPKDWIVRMFLPIKSIKNRIDYNFEMKFADYDREMNIPYLSGCFMFLRKSVIEGIGVFDEGIFMYGEDTDLNRRIYRKYKTMYYPQVTITHHFEKGSHKSLRLLWIHVKAAIYYLNKWGWFFDKERSIINITVKQQYIRKLEHHHHHH	not failed
MKKYFLKCGYFLVCFCLPLIVFANPKTDNERFFIRLSQAPLAQTLEQLAFQQDVNLVIGDILENKISLKLNNIDMPRLLQIIAKSKHLTLNKDDGIYYLNGSQSGKGQVAGNLTTNEPHLVSHTVKLHFAKASELMKSLTTGSGSLLSPAGSITFDDRSNLLVIQDEPRSVQNIKKLIAEMDKPIEQIAIEARIVTITDESLKELGVRWGIFNPTENARRVAGSLTGNSFENIADNLNVNFATTTTPAGSIALQVAKINGRLLDLELSALERENNVEIIASPRLLTTNKKSASIKQGTEIPYIVSNTRNDTQSVEFREAVLGLEVTPHISKDNNILLDLLVSQNSPGSRVAYGQNEVVSIDKQEINTQVFAKDGETIVLGGVFHDTITKSEDKVPLLGDIPVIKRLFSKESERHQKRELVIFVTPHILKAGETLEALKQKSEGKKLEHHHHHH	failed
MMKIFIRILLLFYYVFILLACGDKKESISINYILMARVTNMQTDEIKIDTPSRTIFIKLITGGDLSNVHVNLTLAKGVEMVEPANTESVYDFTKPASVTLKYKEEIITYHFIIDTEYNIVDPATLGWVKSTEWGTLPDYLAIYKSPSTLKGKNAVAYIAVADMDKNASFSVLGNATGVKTLTQFYNAESVKPAIVMNGGYFASNGATVSLLYRNNVMLAPNLQSMSRSDGTSNVAFYPTRSAFGEIENGKFEVNWVYTVSSGQTYAYPAPSPNKSGVSPMQIPSVNYPEGASIWKAKNAIGGGPVLLKNGLYKNTWEAELFDTASGIGPTSNNPRSAIGITGDNRLIFFVCEGRNKTPNVPGFTLEEVAYILRDLGCLDAMNLDGGGSSCMLVNGQETIKPSDGAQRSVTTAVAIK	failed
MDRVMRDDLHIMPPPAPLAMQAQDFSAGFRDALAPPDSPQRDVAPWRVLAFSPAMAATLALVWLMGDWFSDSGISVLEAVLLALISFNFFWIAFAASTVLLGMLSLSRQPARARAGRAEPLKVALLMPVYNEVPWYVLGNARTMLEELKARGGQHQYAMFILSDTRDDAIAAQEQASVEALRTTLAPDLALYYRRRVENTDRKVGNIADWVAGWGGAWDAMLVLDADSLMTGRAIARLTDALARDPGAGLIQSFPQLIGAQSVFARMQQFANGVYGAAFAEGMARWCGQEGNYWGHNAIIRTAAFANCAGLPKLRSLSGREKLIMSHDFVEAGLLRRAGWSVRFLPRIRGSYEETPPTLIDHVLRDRRWCQGNLQHLNLLNARGFRSVSRFHMFHGAIGYLMSPIWFALLVMWALIGHGQDGSVLQYFSPDNPLFPQWPEMTEGRHVLIIVVMYAMLLLPKLLGVLALPLSGAHYSDFGGAGRFLLSFLSEVVLSILYAPILMVQQMIAVFRTFLGIQKGWSPQARDGGTYGLGTLVKCHMLETLSGLALGTGIALGLVSVWLAPIALSLALAVPLSALSGVSAGTARRLIGMREEFREPAITRSARAYRNELKTLLERGSRIHPAE	failed
DDDEPGGKGAMYEVTIEQSGDFRSFIKSVVVVANGTQLKDGATGESLASPVILSDEELAVEKVTLSTTGKAIEFAVSGGVVDGEDGVVNEPMQWVVTVYKNGKEIEKKSLVFRDGKEISTDDLNLYYN	not failed
MIMMESGKLDLDRTKEGVKKYWDYGSKFYDTAPGLGGNEESQIWKKLLSSSIGPDLKNILDVGSGTGIIAMYLAELGYGVTAVDFSEGMMDIARKKALEKGAKIRFMEGDIENLSFEDETFDCVTARYVLWTLPHPEKALKEWVRVVKPGGRIVIIDGKWVTRGLLPRISAMNYHIYRFIKYGKNPFTYDYRKEVSVGLPNPHGVEKKQIMEYVSKAGLTDIVVTDLKIIRDIQRKKLPWYLKYANDHPIFMVRGTVAKKG	failed
MSEEQDKQRNTRKKENNRLLTKAAIIGVVAGILGGGIAYGGLSAANLNSNTSSSTASSSSSNTGENGSVTTSSSGTTKVNKSKTTSGTMTSAYKKVQNAVVSVLNYKYTSSSSSSSDIYSMFGYGDSDSSDSSSSKKSLTLYSEGSGVIYTTANGKGYIVTNNHVISGAAKVKVILASGKTIAAKVVGKDSTSDLAVLSIDSKYVTQTASFGDSRSLLSGQTVIAIGSPEGSEYASTVTQGIISSPSRTITYNSNQMTVIQTDAAINSGNSGGPLVNSDGQVIGINSMKLSSSSSGDSVEGMGFAIPSNEVVTIVNQLVKKGKITRPQLGIKVAAIADLNSYYKKQLGISTSLKKGLYVASVTSGSAAASAGIKKGDVITAADGKTVNDVATLHSILYSHNVGDKVKITVNRNGKTMTFTVTLQASN	failed
VDKINPDLRVHLRLDRGEAILSLDLSGHSLHQRGYRLQQGAAPLKENLAAAILIRAGWPRIAAEGGALADPMCGVGTFLVEAGMIAADIAPNIKRERWGFSAWLGHVPTLWRKLHDEALARAEAGLAKTPSWIRGYEADPRLIQPGRNNIERAGLSDWIKVYQGEVATFEPRPDQNQKGLVICNPPYGERLGDEASLLYLYQNLGERLRQACLNWEAAVFTGAPDLGKRMGIRSHKQYSFWNGALPCKLLLIKVTPDQF	failed
MSPTRAQRLEGLERIAYCSDVKLFFLVSGSRMFLLLLMLFLRVALPHIYGTELLWDSGTLLYDDMNSTWSLLNFPRSWDGVHFFHVAKHGYSHENVCAFFPLVPFIVRTVSWLNDVLLPEFLTAVPVTFQVALLNVAMGGAAAVCLRRITILTLLSGSHGVDYTNKKDKAMSMTSGTWLDSLPLPPPYYRHEVTVKEHLNARLWKEVGATVLMWMLSPTAVFSVVLYTESVFSFATFLGVYMLIVSPQGKWRTAAAEAGAVLCFAVAGCARSNATTYIGFVLYPVFLQVFFFDTYRKRYAKRYGVTSPIRRWPSLARCVIVLIEVVIIITPYLGLNYLCYSRFVPLWDDMSRAAIGGRFWAFYGWMQKRYWNVGFLQSYRWGNAPNVLISAPIMFFTVRGFVLFIVQPALARSMETESNISKEYQEPRSDCREDRCGNKKQRLFSIYKLMENLVQSSNIICLLVILAFGATMAHVNVVNRLVMSSPALYWLWGRQFVCDPWGGNTVVMVRIFLLWNCIGALFVPNGLPWT	failed
MATAGSSYSVSTDHQVSSPLVNLGNVAGVCIMSNAWKVEQEPSLINFISAFLSANSFRLNFVSIPPDLIFNCGGVSIAFVFVTKWDFSNVASIFSRVKRLKGQFAQLYVVATLSTKEQSDSFMRSYFQYEMEFGKPAFVQVTDAEMGFEKIVKIAHSRGVCKQQKVASKLKVERKRTVQDTNIFIRFVTSIPNINKHDANTVMFTYEQVQVLYQAIGSIEAIAKASKEDILANTDLSSKKADTLTRFFQDPEFYLSPKFN	failed
AQKKTQKTYIPWSNGKLVVSEEGRYLKHENGTPFFWLGETGWLLPERLNRDEAEYYLEQCKRRGYNVIQVQTLNNVPSMNIYGQYSMTDGYNFKNINQKGVYGYWDHMDYIIRTAAKKGLYIGMVCIWGSPVSHGEMNVDQAKAYGKFLAERYKDEPNIIWFIGGDIRGDVKTAEWEALATSIKAIDKNHLMTFHPRGRTTSATWFNNAPWLDFNMFQSGHRRYGQRFGDGDYPIEENTEEDNWRFVERSMAMKPMKPVIDGEPIYEEIPHGLHDENELLWKDYDVRRYAYWSVFAGSFGHTYGHNSIMQFIKPGVGGAYGAKKPWYDALNDPGYNQMKYLKNLMLTFPFFERVPDQSVIAGQNGERYDRAIATRGNDYLMVYNYTGRPMEVDFSKISGAKKNAWWYTTKDGKLEYIGEFDNGVHKFQHDSGYSSGNDHVLIVVDSSKDYVKKDCYQIDTHE	not failed
MFWDNLTVAAKFFIEISVELTILFIGITFLVGLSQEYVPDETIKRALGGRNKVIGSILGAGFGAITPFCSCSTIPLLLGMLKAGAPFAAAMAFLFSSPLLNPVIISLFVILLGWKVTALYFVVVFMSTIAIGLLLDWLGFSNQIKPVAVVRNRCDCEQDTNAKSRIQRSAVFAFSLFRQLMPYLLLGAGIGAFIHGFVPTEVITRVAGPSNPLAVPVAAIIGVPIYIRAETMIPIGLALIKKGMSVGAVLALIIGGAGASIPELTLLSSIFKKRLLTAFVITVFSIAVIAGYLANLLTL	failed
MSHVSLQEFLKTEPDGTLEVVAEQYNTTLLEVVRNLPSSTVVPGDKFDTVWDTVCEWGNVTTLVHTADVILEFSGELPSGFHRHGYFNLRGKHGMSGHIKAENCTHIALIERKFMGMDTASILFFNKEGSAMLKIFLGRDDHRQLLSEQVSAFHTLAASLKEHA	not failed
MANLKVGDVLEDRYRIETPIARGGMSTVYRCLDLRLGRSMALKVMEEDFVDDPIFRQRFRREARSMAQLNHPNLVNVYDFSATDGLVYLVMELITGGTLRELLAERGPMPPHAAVGVMRGVLTGLAAAHRAGMVHRDIKPDNVLINSDHQVKLSDFGLVRAAHAGQSQDNQIVGTVAYLSPEQVEGGEIGPASDVYSAGIVLFELLTGTTPFSGEDDLDHAYARLTEVVPAPSSLIDGVPSLIDELVATATSINPEDRFDDSGEFLSALEDVATELSLPAFRVPVPVNSAANRANAQVPDAQPTDMFTTHIPKTPEPDHTAIIPVASANETSILPAQNMAQNMAQNPLQPPEPDFAPEPPPDTALNIQDQELARADEPEINTVSNRSKLKLTLWSIFVVAVIAAVAVGGWWFGSGRYGEIPQVLGMDEVQAVAVVEEAGFVAVAEPQYDNEVPTGSIIGTEPSFGERLPRGEDVSVLVSQGRPVVPDLSEDRSLSTVREELEQRTFVWVDGPGEYSDDVPEGQVVSFTPSSGTQLDVGETVQIHLSRGPAPVEIPDVSGMGVDQATRVLERAGLSVERTEEGFDAETPNGDVYGTSPKVSTEVKRGTSVVLQVSNAISVPDVVGMTKDEATAALAEEGLVVASTSIIPGEAASSADAVVTVEPESGSRVDPAHPQVSLGLAGEIQVPSVVGRKVSDARSILEEAGLTLTTDADDNDRIYSQTPRARSEVSVGGEVTVRAF	failed
